Assay results from patent US20030096349, “N4 virion single-stranded DNA dependent RNA polymerase” (The University of Chicago, published 2003).
Where a chain is given by its changes, count along the chain named.

Assays:
[1] = biological target: T1, mini-vRNAP (N4 virion RNA polymerase central domain) (Bacteriophage N4, UniProt Q859P9 SEQ:38-1143); assay: filter; range given for two or one remaining loop-closing bp; settings: tags: N-terminal His6 (pBAD B), TALON and MonoQ, hairpin
T1 chain: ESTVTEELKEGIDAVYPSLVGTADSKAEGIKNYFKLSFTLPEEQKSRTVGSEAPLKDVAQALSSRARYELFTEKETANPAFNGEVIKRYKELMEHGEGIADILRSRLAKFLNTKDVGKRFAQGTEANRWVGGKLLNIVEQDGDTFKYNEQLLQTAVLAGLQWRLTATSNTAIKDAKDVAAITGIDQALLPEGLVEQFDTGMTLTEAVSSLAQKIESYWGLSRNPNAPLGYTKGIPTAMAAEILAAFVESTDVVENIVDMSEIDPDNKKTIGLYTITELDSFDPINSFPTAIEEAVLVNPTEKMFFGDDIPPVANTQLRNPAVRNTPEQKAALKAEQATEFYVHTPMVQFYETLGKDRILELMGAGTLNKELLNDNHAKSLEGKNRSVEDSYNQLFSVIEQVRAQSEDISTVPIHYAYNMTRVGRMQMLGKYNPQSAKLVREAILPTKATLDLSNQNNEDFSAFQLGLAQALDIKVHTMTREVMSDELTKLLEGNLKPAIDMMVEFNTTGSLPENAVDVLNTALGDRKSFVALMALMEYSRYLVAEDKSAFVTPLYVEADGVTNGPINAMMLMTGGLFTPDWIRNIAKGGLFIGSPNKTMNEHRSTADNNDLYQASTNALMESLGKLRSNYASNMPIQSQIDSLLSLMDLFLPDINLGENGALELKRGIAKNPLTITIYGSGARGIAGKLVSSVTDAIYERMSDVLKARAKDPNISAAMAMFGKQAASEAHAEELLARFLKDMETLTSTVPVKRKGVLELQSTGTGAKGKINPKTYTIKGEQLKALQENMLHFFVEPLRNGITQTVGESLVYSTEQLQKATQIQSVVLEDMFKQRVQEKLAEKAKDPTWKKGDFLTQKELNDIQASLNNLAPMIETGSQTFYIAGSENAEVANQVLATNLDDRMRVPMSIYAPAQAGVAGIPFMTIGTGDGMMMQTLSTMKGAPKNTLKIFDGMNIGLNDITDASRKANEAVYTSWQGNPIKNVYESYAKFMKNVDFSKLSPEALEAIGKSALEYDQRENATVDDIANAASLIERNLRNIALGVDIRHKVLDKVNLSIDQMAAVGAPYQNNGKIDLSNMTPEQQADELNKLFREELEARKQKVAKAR
Protocol: (§1) The effect of changes in the stem length of the hairpin on the ability of mini-vRNAP to bind P2 promoter DNA was analyzed. […] The stem can be shortened by two base pairs without change in the binding affinity. […] No binding is observed if one more nucleotide is removed and the loop cannot form.

[2] = biological target: T1, mini-vRNAP (N4 virion RNA polymerase …); assay: filter; wild type affinity; crosslinks; settings: tags: N-terminal His6 (pBAD B); TALON and MonoQ; label: 32P; hairpin
Source text: To study the sequence determinants of promoter binding, 20 base-long promoter oligonucleotides, containing the wild type vRNAP promoter P2 sequence and substituted at every position with a single 5-Iodo-dU, were used. Whenever substitutions were made in the stem, the corresponding pairing base was changed to A. These oligonucleotides were ³²P end-labeled and used to determine the enzyme's affinity for promoter DNAs by a filter binding assay and the ability to crosslink to mini-vRNAP upon UV irradiation at 320 nm.

[3] = biological target: T2, mini-vRNAP, non-His-tagged (Bacteriophage N4, UniProt Q859P9 SEQ:2-1107); assay: pulldown; DNA-affinity column; lower yield than SEQ 16; settings: label: biotin; hairpin
T2 chain: T1 chain
Protocol: (§2) This property was used for purification of non-his tagged mini-vRNAP (SEQ ID NO:4) on a DNA-affinity column. The column was prepared by adsorbing a 5′ biotinylated N4 promoter-containing DNA oligonucleotide onto the matrix of a 1 ml HiTrap Streptavidin column (Pharmacia/Amersham Cat.#17-5112-01) according to the manufacturer's instructions. A debris-free sonicate of bacterial cells expressing mini-vRNAP was passed through the column. […] Nucleases in the extract are inhibited by addition of 2 mM EDTA. After washing the column, mini-vRNAP was eluted with warm (25° C.) water; the elution temperature was raised from 4° C. to 25° C. to increase mini-vRNAP recovery. For complete elution, the temperature can be raised up to 43° C. without significant change in the quality of the preparation. Elution under these conditions occurs due to the removal of metal ions and consequent melting of the promoter hairpin and dissociation of mini-vRNAP. Different DNA oligonucleotides containing variants of the P2 promoter (SEQ ID NOS:16-19), were used in DNA-affinity columns and tested in mini-vRNAP affinity purification. The best yield was achieved using the DNA oligonucleotide of SEQ ID NO:16. […]

[4] = biological target: T2, mini-vRNAP, non-His-tagged; assay: pulldown; DNA-affinity column; elutes at lower temperature than SEQ 16; settings: label: biotin
Protocol: as §2

[5] = biological target: T1, mini-vRNAP (N4 virion RNA polymerase …); assay: filter; stem lengthened by two bp, affinity unchanged; settings: tags: N-terminal His6 (pBAD B); TALON and MonoQ; hairpin, 7 bp stem
[6] = biological target: T2, mini-vRNAP, non-His-tagged; assay: pulldown; DNA-affinity column, pH 5-9, 50 mM-2 M NaCl, 2 mM EDTA in extract; best yield; settings: label: biotin; hairpin
Protocol: as §2

[7] = biological target: T1, mini-vRNAP (N4 virion RNA polymerase …); assay: filter; no binding when loop cannot form; settings: tags: N-terminal His6 (pBAD B), TALON and MonoQ
Protocol: as §1

mini-vRNAP Y678F = biological target: T3, mini-vRNAP Y678F (Bacteriophage N4, UniProt Q859P9 SEQ:38-1143); assay: UV crosslinking as well as wild type enzyme; settings: tags: N-terminal His6; label: 32P; hairpin
T3 chain: T1 chain with Y678F

[8] = biological target: T1, mini-vRNAP (N4 virion RNA polymerase …); assay: filter; stem shortened by two bp, affinity unchanged; settings: tags: N-terminal His6 (pBAD B); TALON and MonoQ; hairpin, 3 bp stem
Protocol: as §1

[9] = biological target: T1, mini-vRNAP (N4 virion RNA polymerase …); assay: filter; two orders of magnitude reduction; settings: tags: N-terminal His6 (pBAD B); TALON and MonoQ; hairpin, 8 bp stem

## TCCAAAAGAAGCGGAG (ssDNA) [P2 stem shortened to 1 bp]
[1]; 1 loop-closing bp
  Kd: 4.47 nM

## TCCAAAAGAAGCGGAGCTTC (ssDNA, 5-iodo-dU at +2) [P2 20-mer 5-iodo-dU at +2]
[2]
  binding result: binds

## GGATCCAAAAGAAGCGGAGCTTC (ssDNA, 5' biotin) [P2 affinity oligo SEQ 18]
[3]
  binding result: binds

## TCCAAAAGAAGCGGAGCTTC (ssDNA, 5-iodo-dU at +1) [P2 20-mer 5-iodo-dU at +1]
[2]
  binding result: binds

## GGCATTACTTCATCCAAAAGAAGCGGAGC (ssDNA, 5' biotin) [P2 affinity oligo SEQ 20 (shortened stem)]
[4]
  binding result: binds

## TCCAAAAGAAGCGGAGCTTCTT (ssDNA, [none]) [P2 stem lengthened to 7 bp]
[5]
  Kd: ~1 nM

## GGCATTACTTCATCCAAAAGAAGCGGAGCTTC (ssDNA, 5' biotin) [P2 affinity oligo SEQ 16]
[6]
  binding result: binds

## GGCATTACTTCATCCAAAAGAAGCTGAGCTTC (ssDNA, 5' biotin) [P2 affinity oligo SEQ 19 (loop/stem variant)]
[4]
  binding result: binds

## TCCAAAAGAAGCGGA (ssDNA) [P2 without stem]
[7]
  binding result: no binding

## GGCCATCCATTACTTCATCCAAAAGAAGCGGAGCTTC (ssDNA, 5' biotin) [P2 affinity oligo SEQ 17]
[3]
  binding result: binds

## TCCAAAAGAAGCGGAGCTTC (ssDNA, 5-iodo-dU at -11 (loop centre)) [P2 20-mer 5-iodo-dU at -11]
mini-vRNAP Y678F
  binding result: binds

## TCCAAAAGAAGCGGAGCT (ssDNA) [P2 stem shortened to 3 bp]
[8]
  Kd: ~1 nM

## TCCAAAAGAAGCGGAGC (ssDNA) [P2 stem shortened to 2 bp]
[1]; 2 bp stem
  Kd: 4.47 nM

## TCCAAAAGAAGCGGAGCTTCTTT (ssDNA, [none]) [P2 stem lengthened, base paired to -2]
[9]
  binding signal: ~100 fold lower affinity

## TCCAAAAGAAGCGGAGCTTC (ssDNA, 5-iodo-dU at +3) [P2 20-mer 5-iodo-dU at +3]
[2]
  binding result: binds
mini-vRNAP Y678F
  binding result: binds
